US20110262464A1, “Compositions, Kits, and Methods for the Diagnosis, Prognosis, and Monitoring of Cancer Using GOLPH3” (DANAFARBER CANCER INSTITUTE, INC., priority 2008, published 2011)

Tested on: GOLPH3 localization at the Golgi in A549 cells
Test: Immunofluorescence of GOLPH3 localization
Format: cell-based, human
Conditions: A549 treated with EGF at specific time points
Description: For immunofluorescence studies, cells were cultured on cover slips, followed by fixation for 15 min at RT in 4% paraformaldehyde in PBS, permeabilization for 10 min RT in 0.1% Triton X-100/PBS and blocking 1 hr RT in 10% goat or donkey serum/PBS. Slides were incubated 1 hr RT with the following antibodies: mouse anti-HA (1:100, Cell Signaling); rabbit anti-TGN46 (1:500; Abcam), goat anti-VPS35 (1:200; Abcam) and mouse anti-GOLPH3 (1:300). Slides were stained for 1 hour RT with the corresponding Alexa Flour secondary antibodies (Invitrogen). Cover slips were stained with DAPI (Sigma) and mounted with mounting medium. Microscopic images were obtained with a Nikon inverted Ti microscope equipped with Yokogawa spinning disk confocal/TIRF system and a Hamamatsu Orca ER firewire digital CCD camera using constant exposure times for each channel in individual experiments. Images were compiled and false-colored with Adobe Photoshop using identical settings for each color. Magnification is 100× unless otherwise indicated.
In order to determine whether or not ARF4 might regulate GOLPH3 localization at the Golgi apparatus, ARF4 siRNA were transfected into A549 cells.

B1: EGF: epidermal growth factor (Invitrogen), 100 ng/ml for stimulation assays (protein, UniProt P01133 23-1207, looked up)
Pro-epidermal growth factor: PQHWSCPEGTLAGNGNSTCVGPAPFLIFSHGNSIFRIDTEGTNYEQLVVDAGVSVIMDFHYNEKRIYWVDLERQLLQRVFLNGSRQERVCNIEKNVSGMAINWINEEVIWSNQQEGIITVTDMKGNNSHILLSALKYPANVAVDPVERFIFWSSEVAGSLYRADLDGVGVKALLETSEKITAVSLDVLDKRLFWIQYNREGSNSLICSCDYDGGSVHISKHPTQHNLFAMSLFGDRIFYSTWKMKTIWIANKHTGKDMVRINLHSSFVPLGELKVVHPLAQPKAEDDTWEPEQKLCKLRKGNCSSTVCGQDLQSHLCMCAEGYALSRDRKYCEDVNECAFWNHGCTLGCKNTPGSYYCTCPVGFVLLPDGKRCHQLVSCPRNVSECSHDCVLTSEGPLCFCPEGSVLERDGKTCSGCSSPDNGGCSQLCVPLSPVSWECDCFPGYDLQLDEKSCAASGPQPFLLFANSQDIRHMHFDGTDYGTLLSQQMGMVYALDHDPVENKIYFAHTALKWIERANMDGSQRERLIEEGVDVPEGLAVDWIGRRFYWTDRGKSLIGRSDLNGKRSKIITKENISQPRGIAVHPMAKRLFWTDTGINPRIESSSLQGLGRLVIASSDLIWPSGITIDFLTDKLYWCDAKQSVIEMANLDGSKRRRLTQNDVGHPFAVAVFEDYVWFSDWAMPSVMRVNKRTGKDRVRLQGSMLKPSSLVVVHPLAKPGADPCLYQNGGCEHICKKRLGTAWCSCREGFMKASDGKTCLALDGHQLLAGGEVDLKNQVTPLDILSKTRVSEDNITESQHMLVAEIMVSDQDDCAPVGCSMYARCISEGEDATCQCLKGFAGDGKLCSDIDECEMGVPVCPPASSKCINTEGGYVCRCSEGYQGDGIHCLDIDECQLGEHSCGENASCTNTEGGYTCMCAGRLSEPGLICPDSTPPPHLREDDHHYSVRNSDSECPLSHDGYCLHDGVCMYIEALDKYACNCVVGYIGERCQYRDLKWWELRHAGHGQQQKVIVVAVCVVVLVMLLLLSLWGAHYYRTQKLLSKNPKNPYEESSRDVRSRRPADTEDGMSSCPQPWFVVIKEHQDLKNGGQPVAGEDGQAADGSMQPTSWRQEPQLCGMGTEQGCWIPVSSDKGSCPQVMERSFHMPSYGTQTLEGGVEKPHSLLSANPLWQQRALDPPHQMELTQ
modifications: Pro-epidermal growth factor
notes: epidermal growth factor (Invitrogen), 100 ng/ml for stimulation assays
With B1 the “GOLPH3 localization at the Golgi” value was “redistribution of GOLPH3 from the Golgi”.
